This is an account of results in article PMC10665462.

The target of the experiment is BTN3A1 full intracellular domain (human). Put plainly: ITC; nanoITC; 300 μM BTN2A1 ID271 titrated into a mixture of 60 μM BTN3A1 BFI and 120 μM 4-M-HMBPP; independent fit (NanoAnalyze). A general note: Isothermal titration calorimetry measures the heat released or taken up as one component is titrated into another.

With “BTN2A1 intracellular domain (domain or fragment)”, the KD with 4-M-HMBPP came to 190 µM, the N with 4-M-HMBPP is 0.08 and the dH with 4-M-HMBPP is -100 kJ/mol.
